Assay [1] concerns the target CLAcrB_(P223G/V225C/A777C) (E. coli) (UniProt P31224). Briefly: native gel or EMSA; blue native (BN)-PAGE of freshly purified protein, 4–20% gradient gel, no DTT.
Assay [2] shares this target. In words: cross-linking; inter-subunit disulfide trapping (C225–C777) in vivo: membrane vesicles from BW25113ΔacrB extracted in the presence of IAM, SDS-PAGE without DTT, Western blot with anti-AcrB. (In general: Immunoblotting shows a protein as a band on a membrane.)
The target of assay [3] is wild type (WT) AcrB (E. coli) (UniProt P31224). Briefly: native gel or EMSA; blue native (BN)-PAGE of freshly purified protein, 4–20% gradient gel, no DTT.

In general, stoichiometry N refers to a count of units in the complex or per binding partner. As to “CLAcrB_(P223G/V225C/A777C) (from UniProt P31224 1-1049) (natural protein)”, the stoichiometry N in assay [1] and in assay [2] was 3 in each case.
On to “wild type (WT) AcrB (from UniProt P31224 1-1049) (natural protein)”, for which the stoichiometry N in assay [3] worked out at 3.

These data come from paper PMC3230630.
